Measurements: PMC7617869, “Molecular glues that inhibit deubiquitylase activity and inflammatory signaling” (Nature Structural & Molecular Biology, 2025)
“And” between values parts separate entries of the source, which are not always exact repeats. Equal values may be shown once.

Tests used:
Type in all cases: biochemical
BRISC BRCC45 C245A = BRISC BRCC45 C245A (Homo sapiens, UniProt P46736+Q15018+Q9NXR7, C245A); experiment: BRISC mutant IQF assay: BRCC45 C245A
Protocol: (§1) IQF assays were performed in DUB reaction buffer containing 50 mM HEPES–NaOH pH 7.0, 100 mM NaCl, 0.1 mg ml^−1 BSA, 1 mM DTT and 0.03% v/v Brij-35. […] The final concentration of BRISC WT, all BRISC mutants, HsBRISCΔLoop, MmBRISC and DrBRISCΔNΔC was 1 nM. Other enzymes were tested at the following concentrations: 5 nM ARISC (FL), 10 nM CfBRISCΔNΔC, 250 nM AMSH* (ref. [43]), 500 nM USP2 and 1 μM trypsin (Sigma, 9002-07-7). For Michaelis–Menten experiments, 1 nM BRISC with 0–1 μM IQF K63-linked diubiquitin substrate was used. Michaelis–Menten analyses and Lineweaver–Burk plots were calculated using GraphPad Prism (version 9.0).
(§2) To assess enzymatic activity, BRISC complexes were diluted to concentrations between 1 nM and 50 nM. […] Then, 20-μl enzyme reactions were carried out in 384-well black flat-bottom low-flange plates (Corning, 35373). DUB activity was measured using IQF K63-linked diubiquitin (LifeSensors, DU6303) at 50 nM. Cleaved diubiquitin was monitored by measuring fluorescence intensity (excitation, 544 nm; emission, 575 nm; dichroic mirror, 560 nm). Fluorescence intensity was measured every minute for 30 min at 30 °C. Fluorescence intensity units were plotted against time to generate a linear reaction progress curve, where the initial velocity (V0) corresponds to the gradient of the curve (typically achieved within 15 min). IC50 values were calculated using the GraphPad Prism (version 9.0) built-in dose–response equation for inhibitor concentration versus response (variable slope).

BRISC Abraxas2 T140A = BRISC Abraxas2 T140A (Homo sapiens, UniProt P46736+Q15018+Q9NXR7, T140A); experiment: BRISC mutant IQF assay: Abraxas2 T140A; settings: for Normalised V0: Abraxas2 T140A
Protocol: as §1, §2

BRISC BRCC36 L169A = BRISC BRCC36 L169A (Homo sapiens, UniProt P46736+Q15018+Q9NXR7, L169A); experiment: BRISC mutant IQF assay: BRCC36 L169A
Protocol: as §1, §2

BRISC BRCC45 F140A = BRISC BRCC45 F140A (Homo sapiens, UniProt P46736+Q15018+Q9NXR7, F140A); experiment: BRISC mutant IQF assay: BRCC45 F140A
Protocol: as §1, §2

B1: SHMT2: serine hydroxymethyltransferase 2, metabolic enzyme and endogenous inhibitor of BRISC DUB activity (protein)
chain: QLVRMAIRAQHSNAAQTQTGEANRGWTGQESLSDSDPEMWELLQREKDRQCRGLELIASENFCSRAALEALGSCLNNKYSEGYPGKRYYGGAEVVDEIELLCQRRALEAFDLDPAQWGVNVQPYSGSPANLAVYTALLQPHDRIMGLDLPDGGHLTHGYMSDVKRISATSIFFESMPYKLNPKTGLIDYNQLALTARLFRPRLIIAGTSAYARLIDYARMREVCDEVKAHLLADMAHISGLVAAKVIPSPFKHADIVTTTTHKTLRGTRSGLIFYRKGVKAVDPKTGREIPYTFEDRINFAVFPSLQGGPHNHAIAAVAVALKQACTPMFREYSLQVLKNARAMADALLERGYSLVSGGTDNHLVLVDLRPKGLDGARAERVLELVSITANKNTCPGDRSAITPGGLRLGAPALTSRQFREDDFRRVVDFIDEGVNIGLEVKSKTAKLQDFKSFLLKDSETSQRLANLRQRVEQFARAFPMPGFDEH
Normalised V0 (BRISC BRCC45 C245A; SHMT2 1.04167 nM): 0.7409 and 0.9691 and 1.004 | Normalised V0 (BRISC BRCC45 C245A; SHMT2 3.125 nM): 0.5581 and 0.7111 and 0.7493 | Normalised V0 (BRISC BRCC45 C245A; SHMT2 6.25 nM): 0.4848 and 0.6695 and 0.6719 | Normalised V0 (BRISC BRCC45 C245A; SHMT2 12.5 nM): 0.4215 and 0.5643 and 0.477 | Normalised V0 (BRISC BRCC45 C245A; SHMT2 25 nM): 0.501 and 0.3965 and 0.329 | Normalised V0 (BRISC BRCC45 C245A; SHMT2 50 nM): 0.391 and 0.3153 and 0.2153 | Normalised V0 (BRISC BRCC45 C245A; SHMT2 100 nM): 0.3584 and 0.2521 and 0.1837 | Normalised V0 (BRISC BRCC45 C245A; SHMT2 200 nM): 0.2257 and 0.1737 and 0.1153 | SHMT2 inhibition of BRISC mutant (BRISC Abraxas2 T140A; Abraxas 2 T140A): reduced BRISC inhibition by SHMT2 | Normalised V0 (BRISC Abraxas2 T140A; SHMT2 0.00347222 nM): 0.9459 and 1.003 and 1.126 | Normalised V0 (BRISC Abraxas2 T140A; SHMT2 0.0347222 nM): 0.9478 and 0.9048 and 1.065 | Normalised V0 (BRISC Abraxas2 T140A; SHMT2 0.347222 nM): 1.002 and 0.9158 and 1.209 | Normalised V0 (BRISC Abraxas2 T140A; SHMT2 1.04167 nM): 0.9422 and 0.8854 and 1.017 | Normalised V0 (BRISC Abraxas2 T140A; SHMT2 3.125 nM): 0.7382 and 0.7698 and 1.0401 | Normalised V0 (BRISC Abraxas2 T140A; SHMT2 6.25 nM): 0.8737 and 0.7897 and 1.032 | Normalised V0 (BRISC Abraxas2 T140A; SHMT2 12.5 nM): 0.7421 and 0.6608 and 0.8191 | Normalised V0 (BRISC Abraxas2 T140A; SHMT2 25 nM): 0.6241 and 0.5064 and 0.8208 | Normalised V0 (BRISC Abraxas2 T140A; SHMT2 100 nM): 0.3175 and 0.5076 | Normalised V0 (BRISC Abraxas2 T140A; SHMT2 200 nM): 0.2755 and 0.2287 and 0.3324 | SHMT2 inhibition of BRISC mutant (BRISC BRCC36 L169A): reduced BRISC inhibition by SHMT2 | Normalised V0 (BRISC BRCC36 L169A; SHMT2 0.00347222 nM): 1.281 and 0.8219 and 0.8866 | Normalised V0 (BRISC BRCC36 L169A; SHMT2 0.0347222 nM): 1.039 and 0.8402 and 0.9713 | Normalised V0 (BRISC BRCC36 L169A; SHMT2 0.347222 nM): 1.104 and 0.8836 and 0.9494 | Normalised V0 (BRISC BRCC36 L169A; SHMT2 1.04167 nM): 1.083 and 0.823 and 0.89 | Normalised V0 (BRISC BRCC36 L169A; SHMT2 3.125 nM): 0.9817 and 0.7218 and 0.8098 | Normalised V0 (BRISC BRCC36 L169A; SHMT2 6.25 nM): 1.047 and 0.8687 and 0.8472 | Normalised V0 (BRISC BRCC36 L169A; SHMT2 12.5 nM): 0.7117 and 0.4856 and 0.677 | Normalised V0 (BRISC BRCC36 L169A; SHMT2 25 nM): 0.5132 and 0.7026 and 0.4911 | Normalised V0 (BRISC BRCC36 L169A; SHMT2 50 nM): 0.4474 and 0.4092 and 0.7591 | Normalised V0 (BRISC BRCC45 F140A; SHMT2 0.00347222 nM): 0.9456 and 0.9686 and 0.8245 | Normalised V0 (BRISC BRCC45 F140A; SHMT2 0.0347222 nM): 0.8694 and 1.026 and 0.8239 | Normalised V0 (BRISC BRCC45 F140A; SHMT2 0.347222 nM): 0.9307 and 0.9114 and 0.8975 | Normalised V0 (BRISC BRCC45 F140A; SHMT2 1.04167 nM): 0.8692 and 0.886 and 0.7736 | Normalised V0 (BRISC BRCC45 F140A; SHMT2 3.125 nM): 0.8001 and 0.6891 and 0.7189 | Normalised V0 (BRISC BRCC45 F140A; SHMT2 6.25 nM): 0.7321 and 0.6833 and 0.7086 | Normalised V0 (BRISC BRCC45 F140A; SHMT2 12.5 nM): 0.4577 and 0.4521 and 0.5184 | Normalised V0 (BRISC BRCC45 F140A; SHMT2 25 nM): 0.3014 and 0.3302 and 0.288 | Normalised V0 (BRISC BRCC45 F140A; SHMT2 50 nM): 0.2533 and 0.2485 and 0.2535 | Normalised V0 (BRISC BRCC45 F140A; SHMT2 100 nM): 0.2137 and 0.184 and 0.161
